Measurements as given in the nanobody polyreactivity screen of Harvey et al. (2022).

Assay: yeast display, Sf9 membrane polyspecificity reagent, FACS + sequencing; frameworks hold sequencing errors
How it was run: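 Galactose-induced (36–48 hours) yeast carrying a synthetic nanobody display library were exposed to 10% biotinylated, detergent-solubilized Sf9 membrane reagent at 4 °C for 1 hour. FACS followed streptavidin microbead enrichment, using low and high (top ~1%) gates for expression (anti-HA) and reagent binding (streptavidin). Colony PCR, MiSeq 2 × 250 sequencing and CDR-length filtering followed. Labels for polyreactivity reflect the gate of origin.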

Sequence	polyreactivity (PSR sort gate)
QVHLVESGGGLVQAGGSLRLSCAASGFTFGHYAMGWYRQAPGKERELVAAITYRGGSTYYADSVKGRFTISRDNAKNTVYLQMNSLKPEDTAVYYCNADRRYKVYFAQNGHYDYWGQGTQVTVSS	high polyreactivity
QVHLVESGGGLVQAGGSLRLSCAASGFTFLDNAMGWYRQAPGKERELVAAISGIGGSTSYADSVKGRFTISRDNAKNTVYLQMNSLKPEDTAVYYCATRWKTVGRDTIFAYDYWGQGTQVTVSS	low polyreactivity
QVHLVESGGGLVQAGGSLRLSCAASGFTFNLYAMGWYRQAPGQERELVAAINSSGGTYYADSVKGRFTLSRDNAKNTVYLQMNSLTAEDTAVYYCAADFPYTPWSYHHHVWSPDFVYWGQGTQVTVSS	low polyreactivity
QVHLVESGGGLVQAGGSLRLSCAASGFTFPIYAIGWYRQAPGKERELVAAITTRGGSTYYADSVKGRFTISRDNAKNTVYLQMNSLKPEDTAVYYCNNRGRRTDYDYWGQGTQVTVSS	high polyreactivity
QVHLVESGGGLVQAGGSLRLSCAASGFTFYAMGWYRQAPGKERELVAAIDQGGDRTYYADSVKGRFTISRDNAKNTVYFQMNSLKPEDTAVYYCAARYRRTWRLIYWGQGTQVTVSS	high polyreactivity
QVHLVESGGGLVQAGGSLRLSCAASGFTFYRYAMGWYRQAPGKERELVAAISRRGVSTDYADSVKGRFTISRDNAKNTVYLQMNSLKPEDTAVYYCAASYSRGVGKFGYWGQGSQVTVSS	high polyreactivity
QVHLVESGGGLVQAGGSLRLSCAASGGIFKQYAMGLYRQAPGKERDLVAAITWSGGSTYYADSVKGRFTISRDNAKNTVYLQMNRLKPVDTAVYYCAADRRYLDRDKHRYGYWGQGTQVTVSS	low polyreactivity
QVHLVESGGGLVQAGGSLRLSCAASGGTFQSYAMGWYRQAPGKERELVAAITQGGGRTYYADSVKGRFTISRDNAKNTVYLQMNSLKPEDTAVYYCAARQKTPYYYNYGYWGQGTQVTVSS	high polyreactivity
QVHLVESGGGLVQAGGSLRLSCAASGGTFWWYTMGWYRQAPGKERELVATITRGGSTNYADSVKGRFTISRDNAKNTVYLQMNSLKPEDTAVYYCSARWYVYVHFERYYWGQGTQVTVSS	high polyreactivity
QVHLVESGGGLVQAGGSLRLSCAASGGTIGTYAMGWYRQAPGKERELVAAISGRGGSTFYADSVKGRFTISRDNAKNSVYLQMNSLKPEDTAVYYSARGHGRSSKYDYWGQGTQVTVSS	high polyreactivity
QVHLVESGGGLVQAGGSLRLSCAASGIIFAPNAMGWYRQAPGKEREVVAGISSRGGSTYYADSVKGRFTISRDNAKNTVYLQMNSLKPEDTAVYYCAADLSYNPDEYWGQGTQVTVSS	low polyreactivity
QVHLVESGGGLVQAGGSLRLSCAASGIIFAYYAMGWYRQAPGKERELVAAISSTGSTHYADSVKGRFTISRDNAKNTVYLQMNSLKPEDTAVYYCNAYYYYRFKPSHPGLRSYYWGQGTQVTVSS	high polyreactivity
QVHLVESGGGLVQAGGSLRLSCAASGIIFTWYAMGMYRQAPGKEREMVAAISGSGDITYYADSVKGRFTISRDNAKNTVYLQMNSLKPEDTAVYYCAADPWTYWEDYDYWGQGTQVTVSS	low polyreactivity
QVHLVESGGGLVQAGGSLRLSCAASGIILYRNAMGWYRQAPGKERELVAAITNTGSRTYYADSVKGRFTISRDNAKNTVYLQMTSLKPEDTAVYYCAAYYYYSAYGDDYWGQGTQVTVSS	high polyreactivity
QVHLVESGGGLVQAGGSLRLSCAASGITFKWNDMGWYRQAPGKEREFVAAITGSTGSTFYADSVKGRFTISRDNAKNTVYLQMNSLKPEDTAVYFCAAGPWFYYWRQGTQVTVSS	low polyreactivity
QVHLVESGGGLVQAGGSLRLSCAASGITFYRYAMGWYRQAPWKERELVAAITVGGRTYYADSVKGRFTISRDNAKNNVYLQMNSLKPEDTAVYYCNVRTLHSVRGYYYWGQGTQVTVSS	high polyreactivity
QVHLVESGGGLVQAGGSLRLSCAASGKIFRSYMGWYRQAPGKERELVASISRRGGSTYYADSEKGRFTISRDNAKNTVTLQMISLKPEDTAVYYCANVVNYPSARYCYWGQGTQVTVSS	high polyreactivity
QVHLVESGGGLVQAGGSLRLSCAASGLIFVKYALGWYRQAPGKEREFVAAITRSGGTTYYADSVKGRFTISRDNAKNTVYLQMNSLKPEDTAVYYCAAGVVIYFFGGGDYWGQGTQVTVSS	low polyreactivity
QVHLVESGGGLVQAGGSLRLSCAASGLIFVYNAMGWYRQAPGKERELVAGITSGGSTYYADSVKGRFTISRDNAKNTVYLQMNSLKPEDTAVSYCAAGYYDLYLWWGYDYWGQGTQVTVSS	high polyreactivity
QVHLVESGGGLVQAGGSLRLSCAASGLTFAYYAMGWYRQAPGKERELVAAITDSAGNTYYADSVKGRFTISRDNAKNTVYLQMNSLKQEDTAVYYCAAAWPSTGLLYVLGYSGYGYWGQGTQVTVSS	low polyreactivity
QVHLVESGGGLVQAGGSLRLSCAASGNSFTGNAMGWYRQAPGKETELVAALSKRGGSTFYADSVKGRFTISRDNPKNTVYLQLNRLKPEDTAVYYCNALRRGVRDPYGYWGQGTQVTVSS	high polyreactivity
QVHLVESGGGLVQAGGSLRLSCAASGNTFYAYARGWYRQAPGKERELVAAIARAGNTYYADSVKGRFTISRDNAKNTVYLQMNSLKPEDTAVYYCNADDWWYGDNYWGQGTEVTVSS	high polyreactivity

Sequence	polyreactivity (PSR sort gate)
QVHLVESGGGLVQAGGSLRLSCAASGNTFYQYAMGWYRQAPGKERELVAAISSSGGSTYYADSVKGRFTISRDNAKNTVYLQMNSLKPEDTAVYYCATDKWYGYYYWGPGTQVTVSS	low polyreactivity
QVHLVESGGGLVQAGGSLRLSCAASGNTLRVYTKGWYRQAPWKERELVAAISRRGSRTYYADTVKGRFTISRENAKYTVYLQMNSLKPEDTAVYYCAAGIPYPDDYWGQGTQVTVSS	high polyreactivity
QVHLVESGGGLVQAGGSLRLSCAASGRIFDYNTMGWYRQAPGKERELVAAITGGTGSTYYADSVKGRFTISRDNAKNTVYLQMNSLKPEDTAVYYCAAGFHKRVTPEILYDYWGQGTQLTVSS	low polyreactivity
QVHLVESGGGLVQAGGSLRLSCAASGRIFGEYAMGWYRQAPGKERELVAAISYRGGRTYYADSVKGRFTISRDNAKNTVYLQMNSLKPEDTAVYYCAKTNRDEYDYWGQGTQVTVSS	high polyreactivity
QVHLVESGGGLVQAGGSLRLSCAASGRIFGGNVMGWYIQAPGKERELVAAISWSSGSTYYADSVKVLFTISLDNAKNTVYLQMNSQKPDDTSFYYCAADNSFRGYHSPYDYWGQGTQVTVSS	low polyreactivity
QVHLVESGGGLVQAGGSLRLSCAASGRIFGKYAMGWYRQAPGKERELVAAISSSGRTNSADSVKGRFTISRDNAKNTVYLQMNSLKPADTAVYYCAVRVLIHTNTRRLDYWGQGTQVTVSS	high polyreactivity
QVHLVESGGGLVQAGGSLRLSCAASGRIFNYYAMGWYRQAHGKERELVAAISNGGSTYYADSVKGRFTISRDNAKNTVYLQMNSLKPEDTAVYYCNAAARNGYARRVYYWGQGTQVTVSS	high polyreactivity
QVHLVESGGGLVQAGGSLRLSCAASGRIFSVYAMGWYRQAPGKERELVAVITTSGGSTYYADSVKGRFTISRGNAKNTVYLQMNSLKPEDTAVYYCNAEPWSYAIGSYEYWGQGTQVTVSS	high polyreactivity
QVHLVESGGGLVQAGGSLRLSCAASGRIFTYYAMGWYRQAPGKEREFVAAIRRSGGSTDYADSVKGRFTISRDNAKNTVYLQMNSLKPEDTAVYYCAAESPTYPGGEYWGQGTQVTVSS	high polyreactivity
QVHLVESGGGLVQAGGSLRLSCAASGRIFWLYAMGWYRQAPGKERELVAAISSGGSTSYADSVKGRFTISRDNAKNTVYLQMNSLKPEDTAVYYCNATLLFPLLYGPESGEFDYWGQGTQVTVSS	low polyreactivity
QVHLVESGGGLVQAGGSLRLSCAASGRLSQNAMGGYRQAPGKERELVAAITFSGGSTYYADSVKGRFTISRDNAKNTVYLQMNSLKPEDTAVYYCAADDRPLYWRFPDEMDYWGQGTQVTVSS	low polyreactivity
QVHLVESGGGLVQAGGSLRLSCAASGRNFAYNAMGWYRQAPGKETELVASFTSGGSTNYADSVKGRFTISRDNANNTVYLQMNSLKPEDSAVYYCNKDGKYHRVLYDYWGQGTQVTVSS	low polyreactivity
QVHLVESGGGLVQAGGSLRLSCAASGRNFYANAMGWYRQAPGKERELVAAISSGGSTYYADSVKGRFTISRDNAKNTVYLQMKSLKPEDTAVYYCAVYTHKKVRPEYDYWGQGTQVTVSS	low polyreactivity
QVHLVESGGGLVQAGGSLRLSCAASGRTCRINAMGWYRQAPGKERELVAAITSGGRTNYADSVKGRFTISRDNAKNTVYLQMNSLKPEDTAVYYCAADTTHWYYLGYGYWGQGNQVTVSS	low polyreactivity
QVHLVESGGGLVQAGGSLRLSCAASGRTFATYALGWYRQAPGKERELVAAISSGGSTYYADSVKGRFTISRDNAKNTVYLQMNSLKPEDTAVYYCAAARKYYGYNYWGQGTQVTVSS	high polyreactivity
QVHLVESGGGLVQAGGSLRLSCAASGRTFDINAMGWYRQAPGKERELVAAISSRGGTTFYADSVKGRFTISRDHAKNTVYLQMNSLKPEDTAVYYCAAEYSSYYTRGGSYNYWGQGTQVTVSS	low polyreactivity
QVHLVESGGGLVQAGGSLRLSCAASGRTFDLNVMGWYRQAPGKERELVAAISFSGGSTYYADSVKGRFTISRDNAKNTVYLQMNSLKPEDTAVYYCSADEYSADSVPSWYDYWGQGTQVTVSS	high polyreactivity
QVHLVESGGGLVQAGGSLRLSCAASGRTFGINAMGWNRQAPGKERELVAVISFGDGGTYYADSVKGRFTISRDNAKNTVYLQMNSLKPEDTAVYYCATDYQSTSVWGGHFVINPYDYWGQGTQVTVSS	low polyreactivity
QVHLVESGGGLVQAGGSLRLSCAASGRTFGWNVMGWYRQAPGKERELVAAISGSGGSTYYADSVKVRFTISRDNAKNTVYLQMNSLKPEDTAVYYCAALYGPGREYDYWGQGTQVTVSS	low polyreactivity
QVHLVESGGGLVQAGGSLRLSCAASGRTFKGYAMGWYRQAPGKERELVASINWSDGNTYYADSVKGRFTISRDNAKNTVYLQMNSLKPEDTAVYYCNVRRGDRFVRHDYWGQGTQVTVSS	low polyreactivity
QVHLVESGGGLVQAGGSLRLSCAASGRTFKYNTMGWYRQAPGKERELVAVISRSGGRTYYADSVKGRFTISRDNAKNTVYFQMNSLKPEDTAVYYCAKGIPYSDPQSAYDDYWGQGTQVTVSS	high polyreactivity
